Measured values published in patent US20160060340A1 (Kyowa Kirin, published 2016).

Legend:
Rat4-FOLR1-mycHis [1] = target: T1, Rat4-FOLR1-mycHis (human with a rat segment); test: ELISA as in Example 35, antigen coated; white circle indicates that reaction occurred
T1 construct: also called rat/human chimeric FOLR1-mycHis (human 91-95 replaced by rat 89-93)
Procedure: (§1) First, each 50 μL/well of FOLR1-mycHis, Rat1-FOLR1-mycHis, Rat2-FOLR1-mycHis, and Rat4-FOLR1-mycHis which were prepared at a concentration of 10 μg/mL using PBS was […] in a 96-well plate for ELISA, and then incubated at 4° C. overnight. Each well was washed with PBS, and then 200 μL/well of 1% BSA/PBS was added at room temperature for 1 hour for blocking.
(§2) In the same manner as in Example 35, reactivities of ChRA15-7Acc antibody, MORAb-003 antibody, MOv18 antibody, and HuRA15-7CTAcc antibody were evaluated using FOLR1-mycHis prepared in Example 11 and Rat1-FOLR1-mycHis, Rat2-FOLR1-mycHis, Rat4-FOLR1-mycHis prepared in Example 34.

FOLR1-mycHis [2] = target: T2, FOLR1-mycHis (human, UniProt P15328 25-233); test: SPR as in Example 29, antibody captured, FOLR1-mycHis as analyte, 1:1 binding model
T2 construct: Secreted from CHO/DG44 cells, purified on Ni-NTA; Residues 1-233 include the native signal peptide; also called non-reducing FOLR1-mycHis; recombinant protein having myc and His tag at the C-terminus of FOLR1 (1-233 amino acids); not shown: myc and His tag at the C-terminus
Procedure: (§3) The affinities of ChRA15-7Acc antibody and MORAb-003 antibody for FOLR1 were measured by a surface plasmon resonance method. The measurement was carried out in the same manner as in Example 16, except that a Human Antibody Capture Kit (GE Healthcare) was immobilized onto the CM5 chip by amine coupling and FOLR1-mycHis prepared by five-step dilution (12.3, 37, 111, 333, 1000 ng/mL) was applied as an analyte.
In the same manner as in Example 29, affinity of HuRA15-7CTAcc antibody for FOLR1 was measured by the surface plasmon resonance method.

Rat2-FOLR1-mycHis [3] = target: T3, Rat2-FOLR1-mycHis (human with a rat segment); test: ELISA as in Example 35, antigen coated; x indicates that no reaction occurred
T3 construct: also called rat/human chimeric FOLR1-mycHis (human 55-62 replaced by rat 53-60)
Procedure: as §1, §2

[4] = target: T4, cynomolgus monkey FOLR1-Fc (cynomolgus monkey; human); test: ELISA: antibody captured by anti-rat IgG, Fc fusion added, anti-human IgG-POD
T4 construct: Expressed in CHO/Ms704 cells; also called CyFOLR1-Fc; not shown: Human IgG1 Fc (Hinge region and CH2-CH3 region) from pKANTEX93, added to the C-terminus
Procedure: Each well was washed with PBS, and then 100 μL/well of 1% BSA/PBS was added at room temperature for 1 hour for blocking. Each well was washed with PBS again, and 50 μL/well of the RA15-7 culture supernatant was added, and allowed to react at room temperature for 1 hour. Each well was washed with 0.05% tween20/PBS, and 50 μL/well of FOLR1-Fc, FOLR2-Fc, FOLR3-Fc, and cynomolgus monkey FOLR1-Fc which were diluted in 1% BSA/PBS were added, and allowed to react at room temperature for 1 hour.
Each well was washed with 0.05% tween20/PBS, and then 50 μL/well of Goat anti-human IgG(H+L)-POD (American Qualex) which was diluted 2000-fold in 1% BSA/PBS was added and allowed to react at room temperature for 1 hour. Each well was washed with PBS, and then 50 μL/well of ABTS substrate solution was added, and allowed to react at room temperature. After sufficient color development was confirmed, 50 μL/well of 5% SDS solution was added to terminate the reaction, and absorbance at 415 nm was measured.

FOLR1-mycHis [5] = target: T2, FOLR1-mycHis; test: SPR (Biacore T100), antibody of the supernatant captured on CM5 chip, FOLR1-mycHis as analyte, single-cycle kinetics, 1:1 binding model
Excerpt: After cloning, the hybridoma culture supernatant was used to measure its affinity for FOLR1 by a surface plasmon resonance method. As instruments for measurement, Biacore T100 (GE Healthcare), and CM5 chip (GE Healthcare) were used. First, Mouse Antibody Capture Kit (GE Healthcare) was immobilized onto the CM5 chip by amine coupling.
Subsequently, the hybridoma culture supernatant was applied using HBS-EP+buffer (GE Healthcare), and the antibodies contained in the supernatant were captured on the CM5 chip. Subsequently, FOLR1-mycHis prepared by five-step dilution (188, 375, 750, 1500, 3000 ng/mL) was applied as an analyte.
(§4) The affinity was analyzed from association constant (Ka) and dissociation constant (Kd) by Single-cycle kinetics. Kinetic constants (ka, kd, KD) were calculated by 1:1 binding model using a Biacore T-100 Evaluation software (GE Healthcare).

[6] = target: T5, cynomolgus monkey FOLR1 (on JTC-12 cells) (cynomolgus monkey, UniProt P15328 25-234 (human entry)); test: flow cytometry on cynomolgus monkey kidney-derived cell line JTC-12
T5 construct: Endogenous FOLR1 of the cynomolgus monkey kidney-derived cell line JTC-12; also called CyFOLR1
Procedure: Subsequently, the cells were seeded in a 96-well plate at a density of 2×10⁵ cells/well, followed by centrifugation at 1500 rpm for 1 minute. After the supernatant was discarded, 50 μL of RA15-7 culture supernatant was added to each well, and allowed to react at 4° C. for 30 minutes.
Cells were washed, and then Alexa488-labeled anti-rat IgG(H+L) polyclonal antibody (Invitrogen) diluted in 1% BSA/PBS was added thereto, and they were allowed to react at 4° C. for 30 minutes. The cells were washed again, and then suspended in 1% BSA/PBS, and fluorescent intensity was analyzed by flow cytometry.
In the same manner, the reactivity of the RA15-7 culture supernatant to cynomolgus monkey kidney-derived cell line JTC-12 (RCB1485, RIKEN CELL BANK) was also analyzed by flow cytometry.

Rat2-FOLR1-mycHis [7] = target: T3, Rat2-FOLR1-mycHis; test: ELISA, antigen coated at 10 µg/mL; x indicates that no reaction occurred
Rat4-FOLR1-mycHis [8] = target: T1, Rat4-FOLR1-mycHis; test: ELISA, antigen coated at 10 µg/mL, antibody 14-10000 ng/mL; white circle indicates that reaction occurred
Procedure: as §1

FOLR1-mycHis [9] = target: T2, FOLR1-mycHis; test: SPR (Biacore T100), antibody captured with Human Antibody Capture Kit, FOLR1-mycHis as analyte, 1:1 binding model
Procedure: as §4, §3

T2 sequence (P15328 25-233): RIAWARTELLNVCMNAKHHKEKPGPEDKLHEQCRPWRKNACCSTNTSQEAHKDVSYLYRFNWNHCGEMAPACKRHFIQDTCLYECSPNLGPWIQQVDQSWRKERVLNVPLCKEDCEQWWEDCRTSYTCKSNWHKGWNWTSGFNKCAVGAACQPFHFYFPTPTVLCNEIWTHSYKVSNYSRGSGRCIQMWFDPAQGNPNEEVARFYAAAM
T1 sequence (chain, as listed by the source limits assumed): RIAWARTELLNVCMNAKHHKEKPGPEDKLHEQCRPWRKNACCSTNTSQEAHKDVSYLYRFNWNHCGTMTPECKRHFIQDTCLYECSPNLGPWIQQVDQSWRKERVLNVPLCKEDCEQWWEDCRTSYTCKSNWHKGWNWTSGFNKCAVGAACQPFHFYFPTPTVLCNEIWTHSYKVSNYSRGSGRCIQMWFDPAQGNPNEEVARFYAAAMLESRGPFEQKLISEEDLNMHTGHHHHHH
T3 sequence (chain, as listed by the source limits assumed): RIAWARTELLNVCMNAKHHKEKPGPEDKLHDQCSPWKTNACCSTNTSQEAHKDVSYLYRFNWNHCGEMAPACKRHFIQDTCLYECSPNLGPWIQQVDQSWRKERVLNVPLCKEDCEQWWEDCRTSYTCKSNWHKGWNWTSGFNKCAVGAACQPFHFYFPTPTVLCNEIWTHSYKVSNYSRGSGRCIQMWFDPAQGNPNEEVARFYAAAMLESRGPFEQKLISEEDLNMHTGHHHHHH
T5 sequence (P15328 other isoform, or with tags, fused parts or gaps limits assumed): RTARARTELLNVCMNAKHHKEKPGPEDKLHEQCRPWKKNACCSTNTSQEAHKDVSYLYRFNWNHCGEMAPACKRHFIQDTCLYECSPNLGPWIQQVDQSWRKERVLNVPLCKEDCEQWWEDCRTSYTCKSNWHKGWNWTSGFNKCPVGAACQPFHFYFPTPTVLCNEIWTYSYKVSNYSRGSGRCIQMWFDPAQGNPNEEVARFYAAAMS
T4 sequence (chain, as listed by the source): as the sequence (P15328 25-233) above, with I2T, W4R, R37K, A146P, H171Y counted along it

B1: HuRA15-7CTAcc antibody (antibody, human IgG1, V domains shown)
VH: EVQLVESGGGLVQPGGSLRLSCAASGFTFTDFYMNWVRQPPGKAPEWLGFIRNKANGYTTEFNPSVKGRFTISRDNSKNSLYLQMNSLKTEDTATYYCARTLYGYAYYYVMDAWGQGTLVTVSS
VL: DIQMTQSPSSLSASLGDRVTITCRTSEDIFRNLAWYQQKPGKAPKLLIYDTNRLADGVPSRFSGSGSGTDYTLTISSLQPEDFATYFCQQYDNYPLTFGQGTKLEIK
notes: Defucosylated, made in CHO/Ms704 cells; also called CDC enhancement technology-applied defucosylated HuRA15-7CT
Rat4-FOLR1-mycHis [1]
  binding result: binds
FOLR1-mycHis [2]
  Kd: 0.65 nM
  koff: 0.00108 s⁻¹
Rat2-FOLR1-mycHis [3]
  binding result: no binding (tested: up to 10000 ng/mL)

B2: RA15-7 antibody (antibody, V domains shown)
VH: EVKLLESGGGLVQPGGSMRLSCAASGFTFTDFYMNWIRQPAGKAPEWLGFIRNKANGYTTEFNPSVKGRFAISRDNTQNMLYLQMNTLRAEDTATYYCARCLYGYAYYYVMDAWGQGTSVTVSS
VL: DIQMTQSPASLSASLGETVTIECRTSEDIFRNLAWYQQRPGNSPQLLIYDTNRLADGVPSRFSGSGSGTQYSLKINSLQSEDVAGYFCQQYDNYPLTFGSGTKLEIK
notes: also called antibody contained in the RA15-7 culture supernatant; culture supernatant of hybridoma RA15-7 clone
[4]
  binding result: binds
FOLR1-mycHis [5]
  Kd: 1.9 nM
[6]
  binding result: binds

B3: ChRA15-7Acc antibody (antibody, human IgG1, V domains shown)
VH: EVKLLESGGGLVQPGGSMRLSCAASGFTFTDFYMNWIRQPAGKAPEWLGFIRNKANGYTTEFNPSVKGRFAISRDNTQNMLYLQMNTLRAEDTATYYCARCLYGYAYYYVMDAWGQGTSVTVSS
VL: DIQMTQSPASLSASLGETVTIECRTSEDIFRNLAWYQQRPGNSPQLLIYDTNRLADGVPSRFSGSGSGTQYSLKINSLQSEDVAGYFCQQYDNYPLTFGSGTKLEIK
notes: Defucosylated, made in CHO/Ms704 cells; also called CDC enhancement technology-applied defucosylated ChRA15-7; rat/human chimeric RA15-7
Rat2-FOLR1-mycHis [7]
  binding result: no binding (tested: up to 10000 ng/mL)
Rat4-FOLR1-mycHis [8]
  binding result: binds
FOLR1-mycHis [9]
  Kd: 0.57 nM
  koff: 0.001 s⁻¹
